Data as given in patent publication US20150197561A1 (ONCOMED PHARMACEUTICALS, published 2015).
Read-outs that look alike come from different tables or passages of the source.

Experiments:
[1] = molecular target: T1, human Jagged1-Fc (extracellular domain of human Jagged1 fused to human Fc) (human, UniProt P78504 34-1067); test: phage display output screened by ELISA on recombinant human Jagged1 ECD-Fc; 64R7 named as one of the Fabs in paragraph 226
T1 construct: also called hJag1; human Jagged1 ECD-Fc; not shown: human Fc
Protocol: Phage display was used to identify specific Fabs that bind to the extracellular domain of human Jagged1. 2×10¹³ Fab displaying phage particles from a human Fab phage library were incubated with passively immobilized recombinant human Jagged1 ECD protein fused with a human Fc domain. The non-binding phage were washed off, phage bound to the Jagged1 protein were eluted with 100 mM glycine, […] pH2.2 and the elutant was neutralized with 1/10 volume of 2M Tris base. The eluted output phage were used to infect TG1 F+ bacteria and rescued with helper phage. The output of rescued round one served as the starting point for further selection rounds. The selections were continued to round 3, and then the output was screened in ELISA for Fabs specifically binding to recombinant human Jagged1 ECD-Fc protein. Several Fabs that specifically bound to human Jagged1 were identified.

[2] = molecular target: T1, human Jagged1-Fc (extracellular domain …); test: SPR, Biacore 2000; Jagged protein amine-coupled to CM5 chip, antibody injected 100-1.0 nM, global fit; Example 13 run (Table 5), compared with 133R0201, 133R0203, 133R0205; separate experiment from Table 3
Protocol: (§1) The KDs of antibodies 133R0201, 133R0203 and 133R0205 were determined using a Biacore 2000 system from Biacore Lifescience (GE Healthcare) and compared to K, of antibody 64R7. As described above in Example 4, recombinant Jagged proteins human Jagged1-Fc (hJag1), mouse Jagged1-His (mJag1), human Jagged2-Fc (hJag2) and mouse Jagged2-Fc (mJag2) were immobilized on a CM5 chip using standard amine-based chemistry (NHS/EDC). Antibodies were serially diluted in 2-fold increments from 100 to 1.0 nM in HBS-P (0.01M HEPES pH7.4, 0.15M NaCl, 0.005% v/v Surfactant P20) and were injected over the chip surface. Kinetic data were collected over time and were fit using the simultaneous global fit equation to yield affinity constants (K, values) for each antibody (Table 5).

[3] = molecular target: T2, mouse Jagged1-His (extracellular domain of mouse Jagged1, aa 1-1060, with histidine tag) (mouse, UniProt Q9QXX0 34-1060); test: SPR, Biacore 2000; Jagged protein amine-coupled to CM5 chip, antibody injected 100-1.0 nM, global fit
T2 construct: made in insect cells; also called mJag1; Mouse Jagged 1 ECD His-tagged
Protocol: as §1, with “of 64M51, 64R7 and 64R1B” for “of”, “antibodies” for “antibodies 133R0201, 133R0203 and 133R0205”, “Healthcare). Recombinant” for “Healthcare) and compared to K, of antibody 64R7. As described above in Example 4, recombinant”, “(KD” for “(K,”, “3).” for “5).”

[4] = molecular target: T3, human Jagged2-Fc (extracellular domain of human Jagged2 fused to human Fc) (human, UniProt Q9Y219 27-1080); test: as above
T3 construct: also called hJag2; not shown: human Fc
T3 sequence (Q9Y219 27-1080 E501K): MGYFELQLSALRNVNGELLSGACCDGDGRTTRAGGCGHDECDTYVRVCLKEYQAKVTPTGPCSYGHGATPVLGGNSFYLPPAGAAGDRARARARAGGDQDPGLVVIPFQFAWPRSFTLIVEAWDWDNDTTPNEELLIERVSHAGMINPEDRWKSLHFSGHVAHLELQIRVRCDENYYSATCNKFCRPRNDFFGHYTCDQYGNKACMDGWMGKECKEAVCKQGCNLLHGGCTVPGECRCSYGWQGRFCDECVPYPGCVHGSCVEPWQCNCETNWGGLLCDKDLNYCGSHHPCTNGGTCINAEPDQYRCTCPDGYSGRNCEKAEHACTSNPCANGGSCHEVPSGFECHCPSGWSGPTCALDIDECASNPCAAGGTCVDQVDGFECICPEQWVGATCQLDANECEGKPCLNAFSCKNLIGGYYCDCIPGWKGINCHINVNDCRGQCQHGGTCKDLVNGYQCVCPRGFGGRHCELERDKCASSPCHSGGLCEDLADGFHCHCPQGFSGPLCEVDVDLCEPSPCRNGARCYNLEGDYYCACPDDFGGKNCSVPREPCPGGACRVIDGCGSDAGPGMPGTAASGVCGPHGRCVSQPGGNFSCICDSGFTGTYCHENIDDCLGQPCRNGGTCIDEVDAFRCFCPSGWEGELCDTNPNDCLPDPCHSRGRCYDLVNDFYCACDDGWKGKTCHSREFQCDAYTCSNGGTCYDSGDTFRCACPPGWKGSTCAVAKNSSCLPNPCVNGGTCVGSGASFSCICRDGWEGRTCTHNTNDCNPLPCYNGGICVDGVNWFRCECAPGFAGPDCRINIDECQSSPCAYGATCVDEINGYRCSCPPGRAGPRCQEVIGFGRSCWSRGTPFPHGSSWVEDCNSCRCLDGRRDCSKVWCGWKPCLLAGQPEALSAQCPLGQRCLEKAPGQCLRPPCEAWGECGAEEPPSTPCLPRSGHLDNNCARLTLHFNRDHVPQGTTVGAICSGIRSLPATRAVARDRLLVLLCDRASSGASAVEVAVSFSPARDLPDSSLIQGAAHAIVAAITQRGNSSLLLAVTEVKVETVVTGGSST
Protocol: as §1, with “of 64M51, 64R7 and 64R1B” for “of”, “antibodies” for “antibodies 133R0201, 133R0203 and 133R0205”, “Healthcare). Recombinant” for “Healthcare) and compared to K, of antibody 64R7. As described above in Example 4, recombinant”, “(KD” for “(K,”, “3).” for “5).”

[5] = molecular target: T4, mouse Jagged2-Fc (extracellular domain of mouse Jagged2 fused to human Fc) (mouse, UniProt Q9QYE5 24-1082); test: as above
T4 construct: extracellular domain; also called mJag2; not shown: human Fc
T4 sequence (Q9QYE5 24-1082): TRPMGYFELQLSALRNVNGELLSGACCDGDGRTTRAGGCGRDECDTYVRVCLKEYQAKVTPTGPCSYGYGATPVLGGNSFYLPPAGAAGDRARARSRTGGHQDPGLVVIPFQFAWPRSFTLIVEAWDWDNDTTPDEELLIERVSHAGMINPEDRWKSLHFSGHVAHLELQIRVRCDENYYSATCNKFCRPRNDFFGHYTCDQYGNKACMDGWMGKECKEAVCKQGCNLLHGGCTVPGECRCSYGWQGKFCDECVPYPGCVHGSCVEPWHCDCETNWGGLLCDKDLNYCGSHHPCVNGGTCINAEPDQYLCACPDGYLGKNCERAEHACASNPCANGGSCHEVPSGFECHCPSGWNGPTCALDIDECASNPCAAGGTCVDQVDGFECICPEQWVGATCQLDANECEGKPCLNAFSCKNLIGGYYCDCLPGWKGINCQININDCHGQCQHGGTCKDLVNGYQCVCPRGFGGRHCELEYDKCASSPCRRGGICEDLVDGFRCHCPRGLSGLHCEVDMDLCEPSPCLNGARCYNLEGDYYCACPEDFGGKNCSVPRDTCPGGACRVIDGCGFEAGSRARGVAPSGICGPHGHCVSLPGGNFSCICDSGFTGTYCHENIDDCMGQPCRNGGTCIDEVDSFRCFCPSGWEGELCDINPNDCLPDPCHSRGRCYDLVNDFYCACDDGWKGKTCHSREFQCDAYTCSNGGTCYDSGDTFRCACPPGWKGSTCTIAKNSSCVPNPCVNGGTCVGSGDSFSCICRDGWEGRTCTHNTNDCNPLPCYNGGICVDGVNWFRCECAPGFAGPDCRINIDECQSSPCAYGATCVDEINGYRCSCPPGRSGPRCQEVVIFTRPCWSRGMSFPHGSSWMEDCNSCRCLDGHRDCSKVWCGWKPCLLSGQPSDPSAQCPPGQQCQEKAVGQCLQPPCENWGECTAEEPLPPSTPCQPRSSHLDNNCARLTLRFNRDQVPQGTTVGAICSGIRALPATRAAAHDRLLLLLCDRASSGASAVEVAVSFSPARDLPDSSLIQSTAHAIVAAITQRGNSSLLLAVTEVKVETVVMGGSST
Protocol: as §1, with “of 64M51, 64R7 and 64R1B” for “of”, “antibodies” for “antibodies 133R0201, 133R0203 and 133R0205”, “Healthcare). Recombinant” for “Healthcare) and compared to K, of antibody 64R7. As described above in Example 4, recombinant”, “(KD” for “(K,”, “3).” for “5).”

[6] = molecular target: T1, human Jagged1-Fc (extracellular domain …); test: as above
Protocol: as §1, with “of 64M51, 64R7 and 64R1B” for “of”, “antibodies” for “antibodies 133R0201, 133R0203 and 133R0205”, “Healthcare). Recombinant” for “Healthcare) and compared to K, of antibody 64R7. As described above in Example 4, recombinant”, “(KD” for “(K,”, “3).” for “5).”

[7] = molecular target: T2, mouse Jagged1-His (extracellular domain …); test: as above; remark: listed apart in the source
Protocol: as §1

[8] = molecular target: T3, human Jagged2-Fc (extracellular domain …); test: as above; remark: listed apart in the source
Protocol: as §1

[9] = molecular target: T4, mouse Jagged2-Fc (extracellular domain …); test: as above; remark: listed apart in the source
Protocol: as §1

[10] = molecular target: T1, human Jagged1-Fc (extracellular domain …); test: as above; remark: listed apart in the source
Protocol: as §1

[11] = molecular target: T3, human Jagged2-Fc (extracellular domain …); test: SPR, Biacore 2000; Jagged protein on CM5 chip, antibody injected
Protocol: as §1, with “of 64M51, 64R7 and 64R1B” for “of”, “antibodies” for “antibodies 133R0201, 133R0203 and 133R0205”, “Healthcare). Recombinant” for “Healthcare) and compared to K, of antibody 64R7. As described above in Example 4, recombinant”, “(KD” for “(K,”, “3).” for “5).”

[12] = molecular target: T4, mouse Jagged2-Fc (extracellular domain …); test: as above
Protocol: as §1, with “of 64M51, 64R7 and 64R1B” for “of”, “antibodies” for “antibodies 133R0201, 133R0203 and 133R0205”, “Healthcare). Recombinant” for “Healthcare) and compared to K, of antibody 64R7. As described above in Example 4, recombinant”, “(KD” for “(K,”, “3).” for “5).”

[13] = molecular target: T5, mouse Jagged2 expressed on HEK293 cells (mouse, UniProt Q9QYE5 24-1247); test: flow cytometry on transfected HEK293 cells
T5 construct: whole, on cells
T5 sequence (Q9QYE5 24-1247): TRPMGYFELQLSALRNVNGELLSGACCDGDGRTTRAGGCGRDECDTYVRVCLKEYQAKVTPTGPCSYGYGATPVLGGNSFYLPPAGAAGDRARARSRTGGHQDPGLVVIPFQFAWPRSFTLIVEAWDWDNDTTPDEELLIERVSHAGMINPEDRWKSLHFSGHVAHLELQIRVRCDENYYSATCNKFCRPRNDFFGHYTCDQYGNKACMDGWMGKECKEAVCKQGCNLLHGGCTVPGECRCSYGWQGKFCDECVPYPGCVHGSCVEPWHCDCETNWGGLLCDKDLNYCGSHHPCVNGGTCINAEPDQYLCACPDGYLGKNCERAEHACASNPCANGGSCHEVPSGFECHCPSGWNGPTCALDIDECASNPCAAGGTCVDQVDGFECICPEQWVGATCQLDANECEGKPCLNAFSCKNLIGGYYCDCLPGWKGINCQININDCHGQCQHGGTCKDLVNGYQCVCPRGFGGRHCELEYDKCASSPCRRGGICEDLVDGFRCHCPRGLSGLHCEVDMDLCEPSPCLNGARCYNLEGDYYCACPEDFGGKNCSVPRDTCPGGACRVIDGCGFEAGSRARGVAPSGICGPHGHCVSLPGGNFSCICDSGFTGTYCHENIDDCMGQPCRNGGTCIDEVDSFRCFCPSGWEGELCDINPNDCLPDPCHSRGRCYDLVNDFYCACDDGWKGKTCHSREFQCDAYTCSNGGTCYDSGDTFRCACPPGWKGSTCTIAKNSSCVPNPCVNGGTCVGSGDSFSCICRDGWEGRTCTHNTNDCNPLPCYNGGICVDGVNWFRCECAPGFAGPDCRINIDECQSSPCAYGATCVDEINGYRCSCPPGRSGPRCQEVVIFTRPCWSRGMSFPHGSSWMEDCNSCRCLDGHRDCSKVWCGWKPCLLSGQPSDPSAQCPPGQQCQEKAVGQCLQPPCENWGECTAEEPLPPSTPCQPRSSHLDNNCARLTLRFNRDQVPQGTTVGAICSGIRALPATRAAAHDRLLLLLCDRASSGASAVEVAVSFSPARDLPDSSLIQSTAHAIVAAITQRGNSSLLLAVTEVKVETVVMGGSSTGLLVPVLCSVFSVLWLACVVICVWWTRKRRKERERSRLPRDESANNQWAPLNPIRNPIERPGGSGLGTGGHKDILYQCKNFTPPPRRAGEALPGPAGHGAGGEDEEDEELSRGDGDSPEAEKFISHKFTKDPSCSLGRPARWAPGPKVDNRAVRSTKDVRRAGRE

[14] = molecular target: T6, human Jagged2, full-length, expressed on transfected cells (human, UniProt Q9Y219 24-1238); test: flow cytometry on transfected HEK293 cells
T6 construct: Full-length cDNA transfected into HEK293 cells (FACS) or PC3 cells (two cell population reporter assay); also called hJagged2; hJag2
T6 sequence (Q9Y219 24-1238 E501K limits assumed): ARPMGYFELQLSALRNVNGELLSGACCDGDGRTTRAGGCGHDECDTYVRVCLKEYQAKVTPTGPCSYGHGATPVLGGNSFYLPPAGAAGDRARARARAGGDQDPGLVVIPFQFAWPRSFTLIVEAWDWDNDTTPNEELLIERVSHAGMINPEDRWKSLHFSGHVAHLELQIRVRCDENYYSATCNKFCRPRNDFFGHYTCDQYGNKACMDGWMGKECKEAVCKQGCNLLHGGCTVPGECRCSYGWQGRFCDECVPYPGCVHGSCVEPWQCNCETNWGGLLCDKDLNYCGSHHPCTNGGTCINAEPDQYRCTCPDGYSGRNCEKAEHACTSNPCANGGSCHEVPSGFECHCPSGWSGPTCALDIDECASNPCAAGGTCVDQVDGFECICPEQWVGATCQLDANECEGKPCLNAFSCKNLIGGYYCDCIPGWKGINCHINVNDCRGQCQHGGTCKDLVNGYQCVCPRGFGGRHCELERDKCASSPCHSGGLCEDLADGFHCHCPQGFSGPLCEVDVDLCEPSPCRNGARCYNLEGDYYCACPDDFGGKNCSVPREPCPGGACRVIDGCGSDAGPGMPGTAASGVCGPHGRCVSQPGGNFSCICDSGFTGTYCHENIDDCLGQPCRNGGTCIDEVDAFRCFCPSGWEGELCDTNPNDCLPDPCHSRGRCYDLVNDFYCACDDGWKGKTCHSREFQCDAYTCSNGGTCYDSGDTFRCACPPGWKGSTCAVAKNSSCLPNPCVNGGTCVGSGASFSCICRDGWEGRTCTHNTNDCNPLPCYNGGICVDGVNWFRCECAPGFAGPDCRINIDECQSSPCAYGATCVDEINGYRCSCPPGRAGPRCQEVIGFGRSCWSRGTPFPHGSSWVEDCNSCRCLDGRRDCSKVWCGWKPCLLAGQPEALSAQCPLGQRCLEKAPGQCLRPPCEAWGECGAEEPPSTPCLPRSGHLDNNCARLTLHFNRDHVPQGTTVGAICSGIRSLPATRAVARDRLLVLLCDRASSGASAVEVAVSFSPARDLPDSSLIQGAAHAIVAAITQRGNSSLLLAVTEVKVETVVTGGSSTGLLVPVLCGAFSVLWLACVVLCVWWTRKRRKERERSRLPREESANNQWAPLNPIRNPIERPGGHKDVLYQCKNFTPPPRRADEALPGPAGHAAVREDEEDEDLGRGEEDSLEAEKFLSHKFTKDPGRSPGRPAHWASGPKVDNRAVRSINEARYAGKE

Row | Binder | Kd [3] [nM] | Kd [6] [nM] | Kd [7] [nM] | Kd [8] [nM] | Kd [9] [nM] | Kd [10] [nM] | further results
1 | Fab 64R7 (Fab, V domains shown, Fab from a human Fab phage library; also called 64R7 Fab) VH: QVQLVESGGGVVQPGRSLRLSCAASGFTFSSYAMHWVRQAPGKGLEWVAVISYDGSNKYYADSVKGRFTISRDNSKNTLYLQMNSLRAEDTAVYYCARDKYDIPDAFDIWGQGTLVTVSS VL: DIRMTQSPSSLSASVGDRVTITCRASQGISNDLAWYQQKPGKVPRLLIYATSTLQSGVPSRFSGSGSATDFTLTISSLQPEDVATYYCQQSYNAPITFGQGTRLEIK |  |  |  |  |  |  | binding result [1]: binds
2 | 64R7 IgG2 antibody (antibody, V domains shown, Human IgG2 / kappa, expressed in CHO cells; also called antibody 64R7; ATCC PTA-10470) VH: QVQLVESGGGVVQPGRSLRLSCAASGFTFSSYAMHWVRQAPGKGLEWVAVISYDGSNKYYADSVKGRFTISRDNSKNTLYLQMNSLRAEDTAVYYCARDKYDIPDAFDIWGQGTLVTVSS VL: DIRMTQSPSSLSASVGDRVTITCRASQGISNDLAWYQQKPGKVPRLLIYATSTLQSGVPSRFSGSGSATDFTLTISSLQPEDVATYYCQQSYNAPITFGQGTRLEIKR | 10.5 | 5.9 | 4.8 | 10 | 9.6 |  | Kd [2]: 1.7 nM; Kd [4]: 8.3 nM; Kd [5]: 20.6 nM
3 | antibody 133R0201 (antibody, V domains shown) VH: QVQLVESGGGVVQPGRSLRLSCAASGFTFSSYAMHWVRQAPGKGLEWVAAIYPDSSNKYYADSVKGRFTISRDNSKNTLYLQMNSLRAEDTAVYYCARDKYDIPDAFDIWGQGTLVTVS VL: DIRMTQSPSSLSASVGDRVTITCRASQGISNDLAWYQQKPGKVPRLLIYATSTLQSGVPSRFSGSGSATDFTLTISSLQPEDVATYYCQQSYNAPITFGQGTRLEIK |  |  | 0.8 | 2.9 | 3.2 | 0.76 | 
4 | antibody 133R0203 (antibody, V domains shown) VH: QVQLVESGGGVVQPGRSLRLSCAASGFTFSSYAMHWVRQAPGKGLEWVAAISPEASNKYYADSVKGRFTISRDNSKNTLYLQMNSLRAEDTAVYYCARDKYDIPDAFDIWGQGTLVTVS VL: DIRMTQSPSSLSASVGDRVTITCRASQGISNDLAWYQQKPGKVPRLLIYATSTLQSGVPSRFSGSGSATDFTLTISSLQPEDVATYYCQQSYNAPITFGQGTRLEIK |  |  | 1.6 | 3.7 | 3.8 | 1.4 | 
5 | antibody 133R0205 (antibody, V domains shown) VH: QVQLVESGGGVVQPGRSLRLSCAASGFTFSSYAMHWVRQAPGKGLEWVAAIYPASSNKYYADSVKGRFTISRDNSKNTLYLQMNSLRAEDTAVYYCARDKYDIPDAFDIWGQGTLVTVS VL: DIRMTQSPSSLSASVGDRVTITCRASQGISNDLAWYQQKPGKVPRLLIYATSTLQSGVPSRFSGSGSATDFTLTISSLQPEDVATYYCQQSYNAPITFGQGTRLEIK |  |  | 1.5 | 5.8 | 4.8 | 1.2 | 
6 | antibody 64M51 (antibody, mouse IgG1, kappa, V domains shown, Mouse hybridoma monoclonal raised against mouse Jagged1 ECD-His; also called anti-Jagged 64M51; ATCC PTA-10468) VH: QVQLKQSGAELVRPGTSVKLSCKTSGYIFTSYWIHWVKQRSGQGLEWIARIYPGIGSTYYNEKFKDKATLTADKSSSTAYMQLSSLKSEDSAVYFCAKNGGFFDYWGQGTTLTVSS VL: DIVLTQSPASLAVSLGQRATISCRASESVDSYGNSFMHWYQQKPGQPPKLLIYRASNLESGIPARFSGSGSRTDFTLTINPVEADDVATYYCQQSNEDPWTFGGGTKLEIKR | 33 | 30 |  |  |  |  | Kd [4]: 6.2 nM; Kd [5]: 7.9 nM
7 | 64R1B IgG2 antibody (antibody, V domains shown, Human IgG2 / kappa, expressed in CHO cells; also called antibody 64R1B; ATCC PTA-10469) VH: QVQLQESGPGLVKPSGTLSLTCTVSGDSISSSNWWSWVRQPPGQGLEWIGEIFHGENTNYNPSLKSRVTISVDKSKNQISLNLTSATAADTAVYYCARNPGIGAAKFDSWGQGTLVTVSS VL: DIVMTQTPLSLSVTPGQPASISCKSSQSLLHSDGKTYLYWYLQKPGQPPQLLIYEVSNRFSGVPDRFSGSGSGTDFTLKISRVEAEDVGVYYCMQHIDFPFTFGQGTKLEIKR | 0.82 | 0.61 |  |  |  |  | binding result [11]: no binding (tested: No binding detected at 100 nM); binding result [12]: no binding (tested: No binding detected at 100 nM); binding result [13]: no binding (tested: 10 µg/ml); binding result [14]: no binding (tested: 10 µg/ml)
